# B1: HA-dCENP-C(1264-1411) [Drosophila melanogaster] / CAL1-GFP-LacI [Drosophila melanogaster] (parent)
# chain 1: GPVVFSTPLRDEQEEASTKLMQWLRGVGDAPPSASMSDENASVSSANELIFCQVDGIDYAFYNTKEKAMLGYMRFKPYQKRSMKQAKVHPLKLLVQFGEFNVETLAVGEEKEVHSVLRVGDMIEIDRGTRYSIQNAIDKVSVLMCIRS
# chain 2: MANAVVDEETLEAMVYERSKAWSSKMADFASLEDGMEIDVAEFDNLFHGEDEDPDLDDVAKEAVEDNVPDEAKLEMGHINATSVTELTLILCANEDNEAKAEIEEILNQTVPVVEEHKRKWREAGLDRILDTFDEKQIEHHVGRWMRRHNSVYLEASPPKYLPPHHNSISDESDESMHSIDTARYIQQSRRRNAHMTNKNMTTIKMYRKHSHKRDELRAKYAYGDEQEHRHHMQAVLLRRRERERQLAYLASTPMQCVYSSGHHMRRKNLRKRRINSWMFDSASSSEEDTSFGGCDCHSCRRHYALSRSVYQSCPYGRGQREYHHRQMASRTMHTMRRQHTFDMEMDLRPRLPENECSCCNSDRLCSNVIHIANSSTEEWVVENRSNHLTQETQEKTRKQKHQPMDARKVSHQPVCSKGHEQKPLSSKATSVSKLVLSKEKYMQMFDSESSDEDNALAKKGLLCCSDKKKGMTFPTPNAAGKITHPTSSAKKAIRKEARPNGLAQIQEEGPTATNSPIESTYLPVAHMKSVSIDGSSGTSATFESPAKKAPKRGIRETSPLNGNELQQLISTIPIADEKASSLMEKVDNCIGRESFDDRNKDFMHMENSSTKTAVEKSTKQKRVSGKKSEIPKSIITNNEILEKNSTETLSEKQVAAKAKKQSVRKTGATGKPSTSRLKKSEKTKTTSSVTSTSKLEQVREEESDVSSEVLAKPKPQCSTTASILKQGGDGASNSEDDLQIALAMSKATYKEEQQKRKKTKREPSNKQPQSPAEKSMTVFNNQSVACNSTALANDTACYRVLPKRRGVKRAAAVSTTEEKTATNSSSSPTSSLEEMGSPTGGDPDCTVVTSTTGCEPPASERQEIPATIKITKRGILLHSPSAPEGASFTLTEQGLGKIIGERWARKYLKYHIGSRSFDSRHSVYYQPTPQLAAALSAPQDAQNIGNISGSSASDDDIFEQINRYGTVYSILENNSGDK
# B2: HA-dCENP-C(1264-1411) [Drosophila melanogaster] / GFP-LacI-dCENP-C [Drosophila melanogaster] (parent)
# chain 1: B1 chain 1
# chain 2: MSKPQNNDTLELDDILSQPVKDKERFAAFMMRKLAENKPAQNDNLFGNFKLDFDLDFEVPLIKKSQAKPKSKLPEVQPLGELVSKNSAATEKVNEPPVDQAPNENVPPRRSPTLSPNNRRSMRRSGNVPGSDKLRRHAIRRRSRSCGRQLLPEFEETVNLTRSISSPVNFLPEISSTPCTEKQKEEVAKNTTRVETDKPAEKPMELSQEPEPENPLQTKVTSPARNPILAAEIEQICKERQSSFHKNVLQLDYSGRAPYSRPPTPSSPSVAGLRRTYTMEKGPAPGQLLLSPSHRYDTPSKMPVVKAKRFNQELMVPDTPERQSHDPAWQSEPQPEFVVPETQPQDLGELVQTLSRSAISPIVVINTSNSNRSVRRDAVAMKSVPTSPVTALSSPPIAPSPRRSAAASPQKSIAQLPRVEENMDAIMTDDESDEHPSTVPLNLAPSGGNTTRQRRLRSSNRARATIESQESSMRLLNLHKSVNAKKSKPRKTAIPLNKAPSAPINGEQFARELTRMSNYEILDLRKRNSLNEIYPLNGHRNHRSEKLILEEEIQRELLRRNLMDEAEGLPKQQSSDDSNEDYIPVPPKTQSLRTKSNDRSQGRGRPRSTRRDLPMTTELVNYLGLSQTLETRRKSSKDGKRCLYTKGSSDHEDNDSLSPVKLPRLSKSIQIVPPPPVSLRYSQSLQNLPCSGKFDFDNVVMAAPPDFHDSVNSDAIEIAPPPPEYVVNTRGRSTSGRKSNKNDLVLPPPGYEGGQEEEHDERPSQPRCTAKELQQSTQNGRRAMENELVPPPIEYVEEENRNNEQSRRSTKNGNLVDRNTHNAVEYCEPPEPPEYDDSDHGQASILRRSGKKLQHSKQSVQKSNKEQIIAPSYENNEDYDSDEEPIYNEEYGKEESQNKNVTRRKSDKDEMASHTLECIEGPDPNWNSSCNKQNRNHQNASKSKENDKLANRSSKSQKLSNPRQNAVGTEKSVALSNRGEECTEKSSDVMESLRVNTPTPPIDQNSDDVPSRNPSPSRTLLSDDVPSTSRAALEFLQRSQNMSKSRPPDESSADVVFKKPLAPAPRAKSKKGKSEVDKLKLAKMPVEAEELNTTGIRRSKRGQVPLQMSWCHTMDPSKFNFMSGFIEPRSKNSKTKKGNLSKAKKASATKPKPTVEKNLPDNRGPLCSSTPRISEKLPGAIPHSESLGLSTLTWEETEVQAEAEKVPKKRGRPKKAVGGVQTDTEAEPEPEPEPMISSVAPLTSDQEEPDVPDEQAPYTEAALGPVVFSTPLRDEQEEASTKLMQWLRGVGDAPPSASMSDENASVSSANELIFCQVDGIDYAFYNTKEKAMLGYMRFKPYQKRSMKQAKVHPLKLLVQFGEFNVETLAVGEEKEVHSVLRVGDMIEIDRGTRYSIQNAIDKVSVLMCIRS
# Variants of: B1
# Experiment: LacO-tethering recruitment assay (HA immunofluorescence intensity at LacO)
# Details: with CAL1-GFP-LacI [Drosophila melanogaster]; parent: 0.68; read off a plot
row,response (normalized to GFP),Variant
1,0.12,chain 1 GPVVFSTPLRDEQEEASTKLMQWLRGVGDAPPSASMSDENASVSSANELIFCQVDGIDYAFYNTKEKAMLGYMRFKPYQKRSMKQAKVHPLKLEVQFGEFNVETLAVGEEKEVHSVLRVGDMIEIDRGTRYSIQNAIDKVSVEMCIRS [chain 1 L94E L143E]

# Variants of: B2
# Experiment: as above
# Details: with GFP-LacI-dCENP-C [Drosophila melanogaster]; parent: 1.6; read off a plot
row,response (normalized to GFP),Variant
1,-0.05,chain 1 GPVVFSTPLRDEQEEASTKLMQWLRGVGDAPPSASMSDENASVSSANELIFCQVDGIDYAFYNTKEKAMLGYMRFKPYQKRSMKQAKVHPLKLEVQFGEFNVETLAVGEEKEVHSVLRVGDMIEIDRGTRYSIQNAIDKVSVEMCIRS [chain 1 L94E L143E]

# Reference: paper PMC6900781
